# Reference: paper PMC4638388 (Biochimica et biophysica acta, 2015)
# T1: GST-tagged α4 repeat region of α-spectrin (human, UniProt P02549 370-475)
# T1 sequence (looked up): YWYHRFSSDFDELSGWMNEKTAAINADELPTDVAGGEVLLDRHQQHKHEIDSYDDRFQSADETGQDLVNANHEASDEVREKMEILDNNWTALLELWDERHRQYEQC
# B1: SBP1-C (analyte of the surface plasmon resonance) (domain or fragment)
# chain: GKRKGYYLAKKQKKEQMLEQNPEQNPEQNPEQNAQQNAQQNAQQNAQQNSQQNTQQNTQQNTQQKTQQNPQQNAQKTHNNNPQPNPQQKQLLEKPKDKLL
# Assays:
# [1] = target: GST-tagged 16 kDa domain of protein 4.1R (human); assay: SPR
# Sequence of GST-tagged 16 kDa domain of protein 4.1R (human) (P11171 whole entry, the tested form may be a part): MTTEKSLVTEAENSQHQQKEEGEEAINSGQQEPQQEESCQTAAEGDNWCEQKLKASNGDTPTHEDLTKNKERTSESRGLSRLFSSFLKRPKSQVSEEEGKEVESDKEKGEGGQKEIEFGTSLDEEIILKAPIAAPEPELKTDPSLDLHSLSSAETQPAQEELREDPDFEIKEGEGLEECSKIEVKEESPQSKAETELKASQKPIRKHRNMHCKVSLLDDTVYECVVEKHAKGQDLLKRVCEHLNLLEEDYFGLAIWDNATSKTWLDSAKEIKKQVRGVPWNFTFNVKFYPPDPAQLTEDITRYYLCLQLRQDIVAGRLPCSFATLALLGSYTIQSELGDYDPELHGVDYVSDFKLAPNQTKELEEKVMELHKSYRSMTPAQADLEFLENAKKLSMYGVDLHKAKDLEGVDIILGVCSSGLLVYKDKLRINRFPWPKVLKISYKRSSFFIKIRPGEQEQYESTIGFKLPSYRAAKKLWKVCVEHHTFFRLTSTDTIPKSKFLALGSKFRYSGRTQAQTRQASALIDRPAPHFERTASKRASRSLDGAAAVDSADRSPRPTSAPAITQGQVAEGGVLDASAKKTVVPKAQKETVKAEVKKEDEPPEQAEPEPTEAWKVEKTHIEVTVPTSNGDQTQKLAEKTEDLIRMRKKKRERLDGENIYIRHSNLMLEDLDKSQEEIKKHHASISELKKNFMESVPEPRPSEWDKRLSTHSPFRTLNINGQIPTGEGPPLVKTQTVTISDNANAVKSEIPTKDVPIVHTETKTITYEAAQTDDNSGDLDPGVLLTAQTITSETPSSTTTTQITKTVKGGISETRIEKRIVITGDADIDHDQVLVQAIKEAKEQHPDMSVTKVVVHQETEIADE
# [2] = target: T1, GST-tagged α4 repeat region of …; assay: SPR
binder,measurement,setting,value
B1,Ka,[1],1.73e+07 M⁻¹
same,Kd,[1],58.5 nM
same,koff,[1],0.000459 s⁻¹
same,Ka,[2],5.7e+07 ± 1.28 M⁻¹
same,Kd,[2],20.4 nM
same,koff,[2],0.00031 ± 0.42 s⁻¹
